Measurements taken from patent publication US20170307612.

Legend:
[1] = tested on: hemagglutinin of highly pathogenic influenza virus H5N1_01
[2] = tested on: hemagglutinin of highly pathogenic influenza virus H5N1_02
[3] = tested on: hemagglutinin of highly pathogenic influenza virus H5N6
[4] = tested on: hemagglutinin of lowly pathogenic influenza virus H1N1 (Experimental Example 4)
[5] = tested on: hemagglutinin of lowly pathogenic influenza virus H1N1_01
[6] = tested on: hemagglutinin of lowly pathogenic influenza virus H1N1_02
[7] = tested on: hemagglutinin of lowly pathogenic influenza virus H2N1
[8] = tested on: hemagglutinin of lowly pathogenic influenza virus H2N4
[9] = tested on: hemagglutinin of lowly pathogenic influenza virus H3N2 (Experimental Example 4)
[10] = tested on: hemagglutinin of lowly pathogenic influenza virus H3N8
[11] = tested on: hemagglutinin of lowly pathogenic influenza virus H7N7
[12] = tested on: hemagglutinin of lowly pathogenic influenza virus H7N9
[13] = tested on: hemagglutinin of lowly pathogenic influenza virus H9N2 (Experimental Example 4)
[14] = tested on: hemagglutinin of lowly pathogenic influenza virus H9N2_01
[15] = tested on: hemagglutinin of lowly pathogenic influenza virus H9N2_02

## furin
[1]
  fluorescence intensity of probe of Preparation Example 1, furin only, pH 5.5: 2840
  fluorescence intensity of probe of Preparation Example 2, furin only, pH 5.5: 4680
  fluorescence intensity of probe of Preparation Example 3, furin only, pH 5.5: 4330
[2]
  fluorescence intensity of probe of Preparation Example 1, furin only, pH 5.5: 2130
  fluorescence intensity of probe of Preparation Example 2, furin only, pH 5.5: 4840
  fluorescence intensity of probe of Preparation Example 3, furin only, pH 5.5: 5000
[3]
  fluorescence intensity of probe of Preparation Example 1, furin only, pH 5.5: 2420
  fluorescence intensity of probe of Preparation Example 2, furin only, pH 5.5: 2720
  fluorescence intensity of probe of Preparation Example 3, furin only, pH 5.5: 2250
[4]
  fluorescence intensity of probe of Example 4-1, furin only, pH 5.5: 3,721
  fluorescence intensity of probe of Example 4-2, furin only, pH 5.5: 3,955
  fluorescence intensity of probe of Example 4-3, furin only, pH 5.5: 4,344
[5]
  fluorescence intensity of probe of Preparation Example 1, furin only, pH 5.5: 492
  fluorescence intensity of probe of Preparation Example 2, furin only, pH 5.5: 374
  fluorescence intensity of probe of Preparation Example 3, furin only, pH 5.5: 327
[6]
  fluorescence intensity of probe of Preparation Example 1, furin only, pH 5.5: 594
  fluorescence intensity of probe of Preparation Example 2, furin only, pH 5.5: 364
  fluorescence intensity of probe of Preparation Example 3, furin only, pH 5.5: 490
[7]
  fluorescence intensity of probe of Preparation Example 1, furin only, pH 5.5: 371
  fluorescence intensity of probe of Preparation Example 2, furin only, pH 5.5: 333
  fluorescence intensity of probe of Preparation Example 3, furin only, pH 5.5: 569
[8]
  fluorescence intensity of probe of Preparation Example 1, furin only, pH 5.5: 426
  fluorescence intensity of probe of Preparation Example 2, furin only, pH 5.5: 347
  fluorescence intensity of probe of Preparation Example 3, furin only, pH 5.5: 477
[9]
  fluorescence intensity of probe of Example 4-1, furin only, pH 5.5: 4,697
  fluorescence intensity of probe of Example 4-2, furin only, pH 5.5: 4,953
  fluorescence intensity of probe of Example 4-3, furin only, pH 5.5: 1,731
[10]
  fluorescence intensity of probe of Preparation Example 1, furin only, pH 5.5: 399
  fluorescence intensity of probe of Preparation Example 2, furin only, pH 5.5: 442
  fluorescence intensity of probe of Preparation Example 3, furin only, pH 5.5: 313
[11]
  fluorescence intensity of probe of Preparation Example 1, furin only, pH 5.5: 432
  fluorescence intensity of probe of Preparation Example 2, furin only, pH 5.5: 401
  fluorescence intensity of probe of Preparation Example 3, furin only, pH 5.5: 575
[12]
  fluorescence intensity of probe of Preparation Example 1, furin only, pH 5.5: 545
  fluorescence intensity of probe of Preparation Example 2, furin only, pH 5.5: 461
  fluorescence intensity of probe of Preparation Example 3, furin only, pH 5.5: 528
[13]
  fluorescence intensity of probe of Example 4-1, furin only, pH 5.5: 3,134
  fluorescence intensity of probe of Example 4-2, furin only, pH 5.5: 3,703
  fluorescence intensity of probe of Example 4-3, furin only, pH 5.5: 4,218
[14]
  fluorescence intensity of probe of Preparation Example 1, furin only, pH 5.5: 353
  fluorescence intensity of probe of Preparation Example 2, furin only, pH 5.5: 443
  fluorescence intensity of probe of Preparation Example 3, furin only, pH 5.5: 461
[15]
  fluorescence intensity of probe of Preparation Example 1, furin only, pH 5.5: 418
  fluorescence intensity of probe of Preparation Example 2, furin only, pH 5.5: 571
  fluorescence intensity of probe of Preparation Example 3, furin only, pH 5.5: 306

## trypsin
[1]
  fluorescence intensity of probe of Preparation Example 1, trypsin only, pH 5.5: 2950
  fluorescence intensity of probe of Preparation Example 2, trypsin only, pH 5.5: 4000
  fluorescence intensity of probe of Preparation Example 3, trypsin only, pH 5.5: 3410
[2]
  fluorescence intensity of probe of Preparation Example 1, trypsin only, pH 5.5: 2960
  fluorescence intensity of probe of Preparation Example 2, trypsin only, pH 5.5: 4540
  fluorescence intensity of probe of Preparation Example 3, trypsin only, pH 5.5: 4360
[3]
  fluorescence intensity of probe of Preparation Example 1, trypsin only, pH 5.5: 2740
  fluorescence intensity of probe of Preparation Example 2, trypsin only, pH 5.5: 2760
  fluorescence intensity of probe of Preparation Example 3, trypsin only, pH 5.5: 2030
[4]
  fluorescence intensity of probe of Example 4-1, trypsin only, pH 5.5: 17,689
  fluorescence intensity of probe of Example 4-2, trypsin only, pH 5.5: 17,581
  fluorescence intensity of probe of Example 4-3, trypsin only, pH 5.5: 15,674
[5]
  fluorescence intensity of probe of Preparation Example 1, trypsin only, pH 5.5: 3350
  fluorescence intensity of probe of Preparation Example 2, trypsin only, pH 5.5: 4020
  fluorescence intensity of probe of Preparation Example 3, trypsin only, pH 5.5: 3720
[6]
  fluorescence intensity of probe of Preparation Example 1, trypsin only, pH 5.5: 4550
  fluorescence intensity of probe of Preparation Example 2, trypsin only, pH 5.5: 4720
  fluorescence intensity of probe of Preparation Example 3, trypsin only, pH 5.5: 3150
[7]
  fluorescence intensity of probe of Preparation Example 1, trypsin only, pH 5.5: 2210
  fluorescence intensity of probe of Preparation Example 2, trypsin only, pH 5.5: 2120
  fluorescence intensity of probe of Preparation Example 3, trypsin only, pH 5.5: 2060
[8]
  fluorescence intensity of probe of Preparation Example 1, trypsin only, pH 5.5: 4020
  fluorescence intensity of probe of Preparation Example 2, trypsin only, pH 5.5: 3090
  fluorescence intensity of probe of Preparation Example 3, trypsin only, pH 5.5: 3460
[9]
  fluorescence intensity of probe of Example 4-1, trypsin only, pH 5.5: 19,192
  fluorescence intensity of probe of Example 4-2, trypsin only, pH 5.5: 16,812
  fluorescence intensity of probe of Example 4-3, trypsin only, pH 5.5: 16,362
[10]
  fluorescence intensity of probe of Preparation Example 1, trypsin only, pH 5.5: 3600
  fluorescence intensity of probe of Preparation Example 2, trypsin only, pH 5.5: 4070
  fluorescence intensity of probe of Preparation Example 3, trypsin only, pH 5.5: 3400
[11]
  fluorescence intensity of probe of Preparation Example 1, trypsin only, pH 5.5: 2600
  fluorescence intensity of probe of Preparation Example 2, trypsin only, pH 5.5: 2070
  fluorescence intensity of probe of Preparation Example 3, trypsin only, pH 5.5: 2510
[12]
  fluorescence intensity of probe of Preparation Example 1, trypsin only, pH 5.5: 3990
  fluorescence intensity of probe of Preparation Example 2, trypsin only, pH 5.5: 4600
  fluorescence intensity of probe of Preparation Example 3, trypsin only, pH 5.5: 3250
[13]
  fluorescence intensity of probe of Example 4-1, trypsin only, pH 5.5: 18,345
  fluorescence intensity of probe of Example 4-2, trypsin only, pH 5.5: 18,950
  fluorescence intensity of probe of Example 4-3, trypsin only, pH 5.5: 18,035
[14]
  fluorescence intensity of probe of Preparation Example 1, trypsin only, pH 5.5: 3750
  fluorescence intensity of probe of Preparation Example 2, trypsin only, pH 5.5: 4580
  fluorescence intensity of probe of Preparation Example 3, trypsin only, pH 5.5: 3510
[15]
  fluorescence intensity of probe of Preparation Example 1, trypsin only, pH 5.5: 3280
  fluorescence intensity of probe of Preparation Example 2, trypsin only, pH 5.5: 4720
  fluorescence intensity of probe of Preparation Example 3, trypsin only, pH 5.5: 3730
